Laboratory results from patent publication US6355785 (Aronex Pharmaceuticals, Inc.).

What was measured:
[1] = target: T1, HIV-1 reverse transcriptase (Human immunodeficiency virus 1, UniProt P03366;P03366 P03366:600-1159,P03366:600-1039); assay: inhibition; printed as ID50
[2] = target: T1, HIV-1 reverse transcriptase; assay: inhibition
[3] = target: T2, HIV-1 integrase wild-type (IN1-288) (Human immunodeficiency virus 1, UniProt P12497 P12497:1148-1435); assay: inhibition
[4] = target: T2, HIV-1 integrase wild-type (IN1-288); assay: inhibition; both activities 0.125
[5] = target: T2, HIV-1 integrase wild-type (IN1-288); assay: inhibition; both activities 0.120; row misprinted T30745
[6] = target: T3, HIV-1 integrase wild-type (IN1-288) (Human immunodeficiency virus 1, UniProt P12497 P12497:1148-1435); assay: inhibition; 3'-process column; strand transfer column 0.060 (headings appear swapped); conditions: intermolecular G4
[7] = target: T2, HIV-1 integrase wild-type (IN1-288); assay: inhibition; 3'-process column; strand transfer column 0.055; row misprinted T30745
[8] = target: T4, HIV-1 integrase IN1-212 (C-terminal deletion) (HIV-1, UniProt P04585 P04585:1148-1359); assay: inhibition; disintegration assay, Mn2+, 30 C; conditions: intramolecular G4
T4 chain: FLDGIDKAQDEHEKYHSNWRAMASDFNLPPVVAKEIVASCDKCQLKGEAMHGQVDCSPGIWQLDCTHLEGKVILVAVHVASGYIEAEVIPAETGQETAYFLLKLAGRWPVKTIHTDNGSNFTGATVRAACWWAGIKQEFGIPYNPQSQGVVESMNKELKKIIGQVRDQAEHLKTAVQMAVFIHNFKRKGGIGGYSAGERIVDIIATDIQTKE

[9] = target: T3, HIV-1 integrase wild-type (IN1-288); assay: inhibition; both activities 0.120; conditions: intermolecular G4
[10] = target: T2, HIV-1 integrase wild-type (IN1-288); assay: inhibition; 3'-process column; strand transfer column 0.150

GTGGTGGGTGGGTGGGTGGTGGGTGGTGGTTGTGGGTGGGTGGTG (ssDNA, PS all linkages, 3'-amine) [I100-21]
IC50 [1]: 4 nM
Ki [2]: 1 nM

GTGGTGGGTGGGTGGGTGGTGGGTGGTGGTTGTGGGTGGGTGGTG (ssDNA, phosphodiester, 3'-amine) [I100-07]
IC50 [1]: 2500 nM
Ki [2]: 137 nM

GUGGUGGGUGGGUGGGU (ssRNA, pPT (PS at first and last linkages), RNA sugars) [T30661]
IC50 [3]: 84 nM

TGGGAGGTGGGTCTG (structured_DNA, pPT (PS at first and last linkages)) [T30748]
IC50 [4]: 125 nM

GTGGTTGGTGTGGTTGG (structured_DNA, pPT (PS at first and last linkages)) [T30673]
IC50 [3]: 600 nM

GTGGTGGGTGGGTGGGT (structured_DNA, pPT; N5,N13 = C-5 propynyl dU [n positions 5,13 = modified dU]) [T30702]
IC50 [3]: 30 nM

GCGGGGCTCCATGGGGGTCG (structured_DNA, pPT (PS at first and last linkages)) [T30754]
IC50 [5]: 120 nM

GTGGTGGGCGGGTGGGT (structured_DNA, pPT) [T30744]
IC50 [3]: 60 nM

GTGGTTGGTGTGGTTGGT (structured_DNA, pPT (PS at first and last linkages)) [T30674]
IC50 [3]: 610 nM

GTGGTGGGTGGGTGGGT (structured_DNA, pPT; capital T = C-5 propynyl dU (position 5)) [T30700]
IC50 [3]: 40 nM

GTGGTGGGTGGGTGGGT (structured_DNA, pPT; N13 = C-5 propynyl dU [n positions 13 = modified dU]) [T30701]
IC50 [3]: 30 nM

GTGGGTGGTGGGGTGGT (structured_DNA, pPT (PS at first and last linkages)) [T30699]
IC50 [3]: 50 nM

GTGGTGGGTGGGGTGGT (structured_DNA, pPT (PS at first and last linkages)) [T30698]
IC50 [3]: 16 nM

GGGTGGGTGGGTGGGTGG (ssDNA, PS all linkages, 3'-amine) [1174]
IC50 [1]: 15.4 nM
Ki [2]: 15 nM

GTGGTGGGTGGGTTGGT (structured_DNA, pPT (PS at first and last linkages)) [T30678]
IC50 [3]: 120 nM

GTGGGTGGTGGGTGGGT (structured_DNA, pPT (PS at first and last linkages)) [T30696]
IC50 [3]: 13 nM

GCGGGGCTCCATGGGGGTCG (structured_DNA, PS pattern g*c*gggc*t*c*c*a*tggggg*t*c*g (as printed in table footnote)) [S935833]
IC50 [6]: 45 nM

GTTGGGGGTTGTTGGTGGGGTGGTGG (ssDNA, PS all linkages, 3'-amine) [I100-12]
IC50 [1]: 15 nM
Ki [2]: 5 nM

GTTGGGGGTTGTTGGTGGGGTGGTGG (ssDNA, phosphodiester, 3'-propanolamine) [I100-00]
IC50 [1]: 5000 nM
Ki [2]: 370 nM

GTGGCGGGTGGGTGGGT (structured_DNA, pPT) [T30743]
IC50 [7]: 60 nM

GTGGTGGGTGGGTGGGT (structured_DNA, PS at the terminal 5' and 3' internucleoside linkages) [T30177 (AR177)]
IC50 [8]: 600 nM

GTGGTGGGTGGGTGGGT (structured_DNA, pPT; N5 = 5-iodo dU [n positions 5 = modified dU]) [T30576]
IC50 [3]: 50 nM

TGGGAGGTGGGTCTG (structured_DNA, all phosphodiester, DMT at 3' end) [T30747B]
IC50 [9]: 120 nM

GTGGCGGGCGGGCGGGT (structured_DNA, pPT) [T30746]
IC50 [10]: 150 nM

GTGGTGGGTGGGTGGGT (structured_DNA, pPT; N13 = 5-iodo dU [n positions 13 = modified dU]) [T30578]
IC50 [3]: 50 nM

GTGGTGGGTGGGTGGGT (structured_DNA, pPT; N5,N9,N13 = 5-bromo dU [n positions 5,9,13 = modified dU]) [T30571]
IC50 [3]: 50 nM

GTGGTGGGGTGGTGGGT (structured_DNA, pPT (PS at first and last linkages)) [T30697]
IC50 [3]: 13 nM

GATCCATGTCAGTGACAC (ssDNA, PS all linkages, 3'-amine) [1232 random GATC]
IC50 [1]: 45 nM
Ki [2]: 560 nM
